Results: the supplement of paper PMC10126150
± gives the standard deviation of the averaged measurements.

Tested on: ATP
Experiment: switch fluorescence ratio, 500 uM ATP over buffer (Cy3 cluster intensity, sum of 5 cycles each) (fold (ratio)); higher = stronger signal-on switching upon ATP binding; sequences stand for … in TCGTCGGCAGCGTCAGATGTGTATAAGAGACAGTTTTTTTTTTTTTTTTTTTTTTTTT…TC
Conditions: aptamer strand: ATP DNA aptamer (quencher-CACCTGGGGGAGTATTGCGGAGGAAGG + anchor), 100 nM annealed; ATP concentration: 500 uM
Procedure, shortened: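 Cy3-labelled switching-strand clusters on a modified Illumina MiSeq flow-cell were annealed to 100 nM quencher-labelled ATP aptamer, imaged in selection buffer, then imaged after 15 min with 500 uM ATP at 22 °C. Five buffer/ATP cycles ran, with NaOH stripping and re-annealing between them. The fluorescence ratio is summed target-cycle over summed buffer-cycle Cy3 intensity per cluster, averaged per switch-domain sequence. Clusters outside 100-1000 RFU were excluded.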
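Further: ATP exposure 15 min at 22 °C before imaging.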

Sequence | switch fluorescence ratio
GTGCTTAATT | 1 ± 0.05
GGGGAAACGG | 1.06 ± 0.085
GAAAGGGATG | 1.03 ± 0.029
GTTCCAGAGG | 1.03 ± 0.011
GGGAAAAGTT | 1 ± 0.04
CCTTCAGCGT | 1.73 ± 0.086
CCAATTTTAA | 0.985 ± 0.029
TGGTTGTTTA | 0.993 ± 0.0045
ATCTTGGGGC | 0.984 ± 0.023
TCGAAGCCAG | 1.061 ± 0.0045
CAATGGGCGT | 1.0067 ± 0.00057
TGTTTTCGGT | 0.9899 ± 0.0097
TGAATTTGGG | 0.997 ± 0.064
TAAAATGGAA | 1.05 ± 0.1
TAATTGGACT | 1.01 ± 0.013
GGCCAAAGGG | 0.9965 ± 0.0036
TCGGCGGCTG | 0.984 ± 0.01
ATTTGATTGT | 0.98 ± 0.034
CATGAATCTA | 0.98017 ± 0.00042
ACTTTGATTG | 0.982 ± 0.024
GAGGGAGTCG | 1.01 ± 0.022
GATGTACAGA | 1.13 ± 0.019
CGTTTGTGTG | 1.01 ± 0.011

Sequence | switch fluorescence ratio
CAGTTTGGGT | 1.01 ± 0.081
CCATATAGAG | 1.02 ± 0.027
TTGAAAAAAT | 1.06 ± 0.13
TACAGTTGTA | 0.971 ± 0.06
AGCTTCGTCT | 1.04 ± 0.065
GGTGGCTGAA | 0.99 ± 0.022
TAGAATGGAA | 1.02 ± 0.012
TTAGTTTGCT | 1.01 ± 0.019
GGTTTACGGT | 1.007 ± 0.0018
AAACGGACGG | 1.24 ± 0.029
AATTTAGACG | 1.016 ± 0.0083
GCGGTTGTGC | 0.935 ± 0.051
GTGGGGGGCT | 0.984 ± 0.029
AAAGTATATG | 0.983 ± 0.029
GTTTGGGGGG | 1.04 ± 0.13
ATCCGTAATT | 2.6 ± 0.22
TGCCGATCAG | 0.993 ± 0.05
AAACGGCTAA | 1.02 ± 0.039
CGGAGGACAA | 0.976 ± 0.012
GGGACTTAAC | 1.03 ± 0.014
ATTCTGATGC | 1.05 ± 0.0092
GAGGGGGCTA | 1.02 ± 0.029
GTTGGTCTGA | 0.954 ± 0.022

Sequence | switch fluorescence ratio
GCACTTGTAA | 1.005 ± 0.0056
AAATTTCATT | 1 ± 0.041
GAGATTGGAA | 1.002 ± 0.0025
GGGGTAGAAG | 1.004 ± 0.0016
AAAATTTGGG | 1.02 ± 0.025
CGTTGCTGAT | 0.972 ± 0.035
ATTCGGAATA | 1.06 ± 0.016
GGGGGGGAAG | 1.01 ± 0.087
GTCCGGGGGT | 1.07 ± 0.11
TGTTCTGCGA | 1.43 ± 0.54
TGTTTAGGTT | 1.01 ± 0.071
CTGTAGACGG | 1.05 ± 0.014
AGTGAGAGGG | 0.966 ± 0.051
AATGCTTAGA | 0.985 ± 0.03
TTCGAGTCGT | 1.006 ± 0.0034
AGTCCTGGCC | 0.999 ± 0.022
CGGGCACGTG | 0.946 ± 0.021
GGTGGGATGT | 0.981 ± 0.02
AACCAAAAAA | 1.01 ± 0.019
AATTTTAATT | 1 ± 0.027
TGCAAGGGAG | 1.0133 ± 0.00021
GGGGGAGCCC | 0.9896 ± 0.0091
GTTTGTACGT | 0.975 ± 0.038

Sequence | switch fluorescence ratio
AATGAGTGTT | 1.02 ± 0.042
GGGGGGAACT | 0.987 ± 0.022
CAACAAGGCA | 1.02 ± 0.0071
ATGTTAAACG | 1.007 ± 0.0024
TAGTAAAAAC | 0.9938 ± 0.0061
AGACGAGAAT | 1.09 ± 0.14
AAATGTTCTT | 0.986 ± 0.031
AAGCCGTGGC | 0.975 ± 0.11
AACATATGGG | 1 ± 0.012
CCTTGTCGG | 1.07 ± 0.083
CAGCGCGGGA | 0.999 ± 0.014
AAAACATTTT | 1.03 ± 0.049
ATGTTATGAA | 1.06 ± 0.11
TTTAGTCATT | 0.989 ± 0.04
TAGCATCTGG | 0.98 ± 0.039
GGGGACTGTA | 1.04 ± 0.061
ATGGTAGCAA | 2.05 ± 0.14
TCTTGAAGG | 0.953 ± 0.023
TCATGAAGGA | 0.964 ± 0.018
TTTCCCGGCT | 1.04 ± 0.083
GCAAGTTTGC | 1.04 ± 0.042
TCAGTATTTT | 1.018 ± 0.0047
AAGGAAAGGG | 1.21 ± 0.25

Sequence | switch fluorescence ratio
GTTGTCTAAT | 0.9991 ± 0.0073
CAAATTCGTC | 1.07 ± 0.015
GGCTACGAGA | 1.04 ± 0.018
CATTTAGGAT | 0.985 ± 0.018
AGCCATTAGC | 0.992 ± 0.048
CAGCGGTGGG | 1.02 ± 0.029
TATTTTAGAA | 0.996 ± 0.016
ATGTAGTTCC | 1.064 ± 0.0022
AATACTACAG | 1.08 ± 0.024
GTGTATTATT | 0.976 ± 0.02
TAGGTTAAAA | 0.9786 ± 0.0041
CGTAGGGTTA | 1.01 ± 0.025
GCCTCACCCG | 1.26 ± 0.016
GCGTCGGTGT | 0.98 ± 0.01
GGATATCGAG | 0.9982 ± 0.0069
GGGAGGTCGG | 1.01 ± 0.025
CAGGTCTTGA | 0.9888 ± 0.0014
CAGTCTACGA | 1.03 ± 0.015
GGGTTGCGTA | 1.006 ± 0.0027
CGTATGTGGT | 0.97 ± 0.019
AGTGTCGTGG | 1 ± 0.046
GTTGTGGTTA | 1.02 ± 0.015
GCCGGTCTGT | 1.01 ± 0.03

Sequence | switch fluorescence ratio
ATTTAAAATG | 0.994 ± 0.033
GTGCCAGGAT | 1.03 ± 0.052
ACAGACAGCG | 1.06 ± 0.022
AAGATAGTAC | 1.04 ± 0.024
AACGGGTGCG | 0.995 ± 0.02
AATATATGGA | 1 ± 0.023
CTGGGTAAGT | 1.017 ± 0.0074
TAGCGTTAGG | 1.029 ± 0.0049
TTAGCCACGC | 0.9902 ± 0.0029
CCAACGGTGC | 2.24 ± 0.095
CTGTCAGATT | 0.974 ± 0.025
GTAAGAAAGA | 1.02 ± 0.015
GGGGTAGACT | 0.995 ± 0.018
TTAGGTTGCA | 0.9809 ± 0.0092
TGGGGACCGG | 1.01 ± 0.027
TTCGGGTGCT | 1.08 ± 0.052
CGCACGATGC | 2.89 ± 0.32
CGCGTGGGCC | 1.03 ± 0.026
GGGCTAGGCT | 0.9684 ± 0.006
CCGATAATAG | 5.21 ± 2.2
AGAGAAGGTC | 1.017 ± 0.0086
TAATGGGGCG | 0.997 ± 0.025
AAAAGGTGAA | 1.04 ± 0.089

Sequence | switch fluorescence ratio
GCCAGAGAGT | 1.01 ± 0.012
TTGGGAAGTA | 0.985 ± 0.016
TTTTGTGG | 1.01 ± 0.073
GTCGCGGGGT | 1.027 ± 0.0036
TAATGAATGT | 1.02 ± 0.04
TAGGCTTTTT | 0.9925 ± 0.0075
TAATATGGTG | 0.998 ± 0.014
AAGAATCTCT | 0.968 ± 0.045
TTATCTAAGT | 1 ± 0.036
GGCCGGATAG | 1.03 ± 0.021
CGAGGTAGAG | 1.01 ± 0.049
TCTGAATTCA | 0.972 ± 0.026
AAAGCGGTTG | 0.98 ± 0.012
TACTTTTTTT | 1.01 ± 0.037
GTTGTTGGTG | 1.01 ± 0.015
TACTGGGGTA | 1.02 ± 0.028
GGAAATGTCG | 0.918 ± 0.078
CGGGAGTGCG | 1.02 ± 0.024
AAGTTGCGTT | 1.01 ± 0.015
